This is an account of results in publication PMC10900128 (Chembiochem : a European journal of chemical biology, 2018).

*: point of attachment. FITC = O=C1OC2(c3ccc(O)cc3Oc3cc(O)ccc32)c2ccc(NC(=S)*)cc21; βAla = NCCC(=O)O

This assay has as its target T1, FITC-MLL peptide (SMILES …).
T1 peptide: {FITC-βAla}-DAGNILPSDIMDFVLKNTP-NH2
In words: fluorescence polarisation.

B1: GACKIX N627C (GACKIX domain of mouse CBP, residues 586–672, N627C mutant), unlabeled (domain or fragment)
chain: not shown
Regarding B1, the binding result was “binds”.
